The text below walks through data of patent US20230112035A1 (AstraZeneca / MedImmune, published 2023).

Substitutions are numbered along the chain they refer to. In names and notes the source's numbering stands. Like-named read-outs stand apart in the source and are kept apart here.

Test [1] has as its target T1, recombinantly produced αvβ8 integrin protein (UniProt P06756 31-992; P26012 43-684).
T1 chain 1: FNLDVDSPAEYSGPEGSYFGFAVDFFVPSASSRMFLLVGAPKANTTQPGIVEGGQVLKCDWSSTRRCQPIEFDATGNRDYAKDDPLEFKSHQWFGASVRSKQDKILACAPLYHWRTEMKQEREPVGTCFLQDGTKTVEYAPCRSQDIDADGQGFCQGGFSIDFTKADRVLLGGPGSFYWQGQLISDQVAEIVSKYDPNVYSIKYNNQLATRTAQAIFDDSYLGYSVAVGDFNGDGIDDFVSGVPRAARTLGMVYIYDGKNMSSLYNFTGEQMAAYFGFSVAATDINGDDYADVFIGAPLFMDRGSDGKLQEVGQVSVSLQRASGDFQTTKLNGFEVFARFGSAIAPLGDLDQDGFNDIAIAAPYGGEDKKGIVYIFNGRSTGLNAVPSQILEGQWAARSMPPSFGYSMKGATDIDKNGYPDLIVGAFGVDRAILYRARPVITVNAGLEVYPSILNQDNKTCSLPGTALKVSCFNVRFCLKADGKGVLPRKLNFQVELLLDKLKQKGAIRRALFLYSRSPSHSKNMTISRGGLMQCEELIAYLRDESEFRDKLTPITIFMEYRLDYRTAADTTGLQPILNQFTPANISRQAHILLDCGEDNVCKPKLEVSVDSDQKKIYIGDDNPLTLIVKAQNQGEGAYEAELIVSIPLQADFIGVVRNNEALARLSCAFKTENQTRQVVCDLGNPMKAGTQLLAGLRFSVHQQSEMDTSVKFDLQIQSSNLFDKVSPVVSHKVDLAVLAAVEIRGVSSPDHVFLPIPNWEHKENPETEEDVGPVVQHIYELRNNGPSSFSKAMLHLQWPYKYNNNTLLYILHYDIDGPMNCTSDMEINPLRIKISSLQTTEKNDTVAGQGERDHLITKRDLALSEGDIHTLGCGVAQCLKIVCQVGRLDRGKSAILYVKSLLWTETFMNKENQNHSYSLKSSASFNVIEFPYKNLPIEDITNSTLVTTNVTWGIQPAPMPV
T1 chain 2: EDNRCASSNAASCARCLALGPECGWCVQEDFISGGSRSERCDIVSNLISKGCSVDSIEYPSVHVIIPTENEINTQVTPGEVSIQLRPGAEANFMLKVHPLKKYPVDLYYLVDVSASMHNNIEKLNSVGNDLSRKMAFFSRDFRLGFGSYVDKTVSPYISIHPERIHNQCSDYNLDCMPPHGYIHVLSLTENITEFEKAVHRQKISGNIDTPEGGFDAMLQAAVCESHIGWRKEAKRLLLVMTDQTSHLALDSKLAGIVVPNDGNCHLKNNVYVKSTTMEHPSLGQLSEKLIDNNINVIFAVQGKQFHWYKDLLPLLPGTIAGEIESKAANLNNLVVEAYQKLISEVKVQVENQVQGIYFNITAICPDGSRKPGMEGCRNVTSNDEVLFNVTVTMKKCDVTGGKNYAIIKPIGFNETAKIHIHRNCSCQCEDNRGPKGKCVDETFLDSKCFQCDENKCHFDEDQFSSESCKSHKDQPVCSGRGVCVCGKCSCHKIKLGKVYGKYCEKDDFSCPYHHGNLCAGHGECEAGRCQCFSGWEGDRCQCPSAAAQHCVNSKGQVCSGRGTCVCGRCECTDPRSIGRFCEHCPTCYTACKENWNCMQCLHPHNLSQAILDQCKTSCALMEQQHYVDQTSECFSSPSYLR

Test [2] deals with T1, recombinantly produced αvβ8 integrin …. Description: Biacore. (In general: In SPR one partner is held on a chip, and binding of the other changes the refractive index at the surface.)
The target in test [3] is human αvβ8 integrin expressed on cells and in tissue (human, UniProt P06756 31-1048; P26012 43-769). Description: cell-based or functional assay.
Test [4] has as its target T1, recombinantly produced αvβ8 integrin …. As to the kind of experiment: Biacore; value is an estimate.
For test [5], the target named is T2, recombinantly produced αvβ8 integrin protein (human, UniProt P06756 31-992; P26012 43-684).
T2 construct: Protein coated on ELISA plates and used in Biacore; also called integrin αvβ8
Description: ELISA screening of position 94 mutants. Background: ELISA stands for enzyme-linked immunosorbent assay.

B1: Chi-37E1B5 chimeric anti-αvβ8 integrin antibody (antibody, V domains shown)
VH: EVQLVESGGGLVQPGGSLNLSCAVSGFVFSRYWMSWVRQAPGKGLEWIGEINPDSSTINYTSSLKDKFIISRDNAKNTLYLQMNKVRSEDTALYYCACLITTEDYWGQGTSVTVSS
VL: EIVLTQSPSSMYASLGERVTIPCKASQDINSYLSWFQQKPGKSPKTLIYYANRLVDGVPSRFSGSGSGQDYSLTISSLEYEDMGIYYCLQYDEFPYTFGGGTKLEIK
In the case of B1, the Kd in test [1] and in test [2] was 0.5 nM each time.

B2: B5-15 humanized and affinity optimized anti-αvβ8 integrin antibody (antibody, V domains shown)
VH: EVQLVESGGGLVQPGGSLRLSCAVSGFVFSRSWISWVRQAPGKGLEWIGEINPDSSTINYTSSLKDRFTISRDNAKNSLYLQMNSLRAEDTAVYYCAILITTEDYWGQGTTVTVSS
VL: DIQLTQSPSSLSASVGDRVTITCKASQDINKYLSWFQQKPGKAPKSLIYYANRLVDGVPSRFSGSGSGTDFTLTISSLQPEDFATYYCLQYDVFPYTFGGGTKVEIK
For the molecule B2, in test [3], the “SMAD2/3 phosphorylation in kidney lysates of humanized αvβ8 transgenic mice after UUO (ELISA)” value was 1.6 fold. Besides, the Kd in test [1] was determined as 0.166 nM.

B3: hu37E1B5 anti-αvβ8 integrin antibody (UCSF humanized sequence of WO 2013/026004) (antibody, V domains shown)
VH: B2 VH with S32Y, I34M, I98S
VL: EIVLTQSPSSLSLSPGERVTITCKASQDINSYLSWYQQKPGKAPKLLIYYANRLVDGVPARFSGSGSGQDYTLTISSLEPEDFAVYYCLQYDEFPYTFGGGTKLEIK
B3: the dissociation constant (Kd) in test [4] was approximately 490 nM.

B4: MEDI-hu37E1B5-C94I mutant antibody (antibody, V domains shown)
VH: B2 VH with S32Y, I34M
VL: B2 VL with K31S, V93E
notes: IgG; also called humanized anti-αvβ8 integrin antibody C94I
With B4, the “fold reduction in αvβ8 binding affinity (against MEDI-hu37E1B5 with Cys 94)” value in test [5] is approximately 3 fold.

In general, Kd refers to a measure of binding affinity in units of concentration.
